For experiment [1], the target named is T1, recombinant cynomolgus monkey CD38-ECD-C-his (cynomolgus monkey, UniProt Q5VAN0 45-301).
T1 construct: Extracellular region fused to 6-His; also called cyno CD38-C-His; recombinant cynomolgus monkey CD38 protein
Put plainly: SPR, His-captured cyno CD38, Fab analyte, 1:1 fit. (In general: In SPR one partner is held on a chip, and binding of the other changes the refractive index at the surface.)
Experimental: (§1) Surface plasmon resonance (SPR) was used to measure the binding affinities of the Fab fragments for human and cynomolgus monkey CD38. Affinities were measured on a Biacore T200 instrument (Biacore, GE Healthcare) at 25° C. and analyzed with the Biacore T200 Evaluation Software (v3.1).
(§2) The affinities to human and cynomolgus monkey CD38 were assessed by immobilizing CD38 and using Fab fragments as analyte. Biotinylated recombinant human CD38 protein was immobilized to around 160 RU on flow-path 2 of a Series S Sensor Chip SA or to around 100 RU on flow-path 2 of a Series S BiotinCAPture Chip and recombinant cynomolgus monkey CD38-his protein was immobilized to around 50-100 RU on flow-path 2 of a Series S CM5 Sensor Chip previously coated with anti-histidin antibody. Fab fragments were injected in single cycle kinetic at different concentrations ranging from 7.8 to 2000 nM, in HBS-EP+ buffer (Biacore, GE Healthcare, catalog NO: BR100669) at a flow rate of 30 μl/min for 3 min on flow-path 1 and 2 (flow-path 1 being used as reference). Dissociation was monitored for 5 min.

The target of experiment [2] is T2, recombinant biotinylated human CD38 Avitag, His Tag (Acrobiosystems, CD8-H82E7) (human, UniProt P28907 43-300, biotinylated (Avitag)).
T2 construct: Bought protein; also called biotinylated human CD38-avi-his protein; biotinylated recombinant human CD38 protein
Put plainly: SPR, biotinylated CD38 captured, Fab analyte, 1:1 fit.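 Also: biacore T200 at 25 °C, single-cycle kinetics with Fab injected at 7.8–2000 nM for 3 min, dissociation followed 5 min, reference flow path subtracted.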
Experimental: as §1, §2

B1: Anti-CD38-UCP02-D5 Fab (Fab, V domains shown)
VH: QVQLVQSGAEVKKPGSSVKVSCKASGGIFSVHAIHWVRQAPGQGLEWMGEIIPVIGEADYAQKFQGRVTITADESTSTAYMELSSLRSEDTAVYYCAREQYYYALGGGFDYWGQGTLVTVSS
VL: not shown
notes: human IgG1 Fab
A word on the Kd: it is a measure of binding affinity in units of concentration. Consider B1, for which the Kd in experiment [1] worked out at 33.5 nM; in experiment [2] it was 192 nM.

B2: Anti-CD38-UCP01-B1 Fab (Fab, V domains shown)
VH: QVQLVQSGAEVKKPGSSVKVSCKASGGDFDQYYISWVRQAPGQGLEWMGRIIPTLGDSQYAQKFQGRVTITADESTSTAYMELSSLRSEDTAVYYCARAVIVSPYYYIYVFDVWGQGTLVTVSS
VL: not shown
notes: human IgG1 Fab
As for B2, the equilibrium dissociation constant (Kd) in experiment [1] was found to be 102 nM; in experiment [2], 193 nM.

B3: Anti-CD38-UCP02-D1 Fab (Fab, V domains shown)
VH: QVQLVQSGAEVKKPGSSVKVSCKASGGDFDQYYISWVRQAPGQGLEWMGRIIPTLGDSQYAQKFQGRVTITADESTSTAYMELSSLRSEDTAVYYCARAVIVSPYYYIYVFDVWGQGTLVTVSS
VL: not shown
notes: human IgG1 Fab
Consider B3, for which the Kd in experiment [1] worked out at 78 nM; in experiment [2], 133 nM.

B4: Anti-CD38-UCP03-B6 Fab (Fab, V domains shown)
VH: QVQLVQSGAEVKKPGSSVKVSCKASGGHISNSAINWVRQAPGQGLEWMGRVIPVIDDAYYAQKFQGRVTITADESTSTAYMELSSLRSEDTAVYYCARSRGYYGSFYFDIWGQGTLVTVSS
VL: not shown
notes: human IgG1 Fab; also called anti-CD38-B6; anti-CD38-B6 Fab
For B4, the Kd in experiment [1] stood at 829 nM; in experiment [2], 225 nM.

B5: Anti-CD38-UCP01-E2 Fab (Fab, V domains shown)
VH: QVQLVQSGAEVKKPGSSVKVSCKASGGSFSNYAIGWVRQAPGQGLEWMGRIIPVFGSAHYAQKFQGRVTITADESTSTAYMELSSLRSEDTAVYYCARGLGYYLYSSYYFDIWGQGTLVTVSS
VL: not shown
notes: human IgG1 Fab; also called anti-CD38-E2; anti-CD38-E2 Fab
With B5, the results for the dissociation constant Kd in experiment [1] and in experiment [2] were 88.9 nM and 110 nM, respectively.

B6: Anti-CD38-UCP02-H1 Fab (Fab, V domains shown)
VH: QVQLVQSGAEVKKPGSSVKVSCKASGDKFNTYAISWVRQAPGQGLEWMGGITPRYDYAHYAQKFQGRVTITADESTSTAYMELSSLRSEDTAVYYCARSWGFRAGYLDYWGQGTLVTVSS
VL: not shown
notes: human IgG1 Fab
On to B6, for which the results for the Kd in experiment [1] and in experiment [2] were 2.7 nM and 154 nM, respectively.

B7: Anti-CD38-UCP01-F1 Fab (Fab, V domains shown)
VH: QVQLVQSGAEVKKPGSSVKVSCKASGGVFSLYTITWVRQAPGQGLEWMGSIIPLLGDPEYAQKFQGRVTITADESTSTAYMELSSLRSEDTAVYYCARYPYPYGSKYFDIWGQGTLVTVSS
VL: not shown
notes: human IgG1 Fab
Take B7: the dissociation constant (Kd) came out at 393 nM in experiment [1] and 429 nM in experiment [2].

B8: Anti-CD38-UCP03-H5 Fab (Fab, V domains shown)
VH: QVQLVQSGAEVKKPGSSVKVSCKASGGLFSFYAISWVRQAPGQGLEWMGGIIPFFGEPQYAQKFQGRVTITADESTSTAYMELSSLRSEDTAVYYCARGSYRFDVWGQGTLVTVSA
VL: not shown
notes: human IgG1 Fab
Regarding B8, the results for the equilibrium dissociation constant (Kd) in experiment [1] and in experiment [2] were 111 nM and 142 nM, respectively.

B9: Anti-CD38-UCP01-C2 Fab (Fab, V domains shown)
VH: QVQLVQSGAEVKKPGSSVKVSCKASGGYLGIYAISWVRQAPGQGLEWMGRIIPILGEADYAQKFQGRVTITADESTSTAYMELSSLRSEDTAVYYCARGGVWWDYWGQGTLVTVSS
VL: not shown
notes: human IgG1 Fab
In the case of B9, the Kd was 53.5 nM in experiment [1] and 85.3 nM in experiment [2].

B10: Anti-CD38-UCP02-E5 Fab (Fab, V domains shown)
VH: QVQLVQSGAEVKKPGSSVKVSCKASGGGFRHYFISWVRQAPGQGLEWMGGIIPAAATPYYAQKFQGRVTITADESTSTAYMELSSLRSEDTAVYYCARGYWHWFDYWGQGTLVTVSS
VL: not shown
notes: human IgG1 Fab
For B10, the Kd in experiment [2] is 0.03 nM.

B11: Anti-CD38-UCP03-C3 Fab (Fab, V domains shown)
VH: QVQLVQSGAEVKKPGSSVKVSCKASGGKFSNYAISWVRQAPGQGLEWMGRIIPQIGDAAYAQKFQGRVTITADESTSTAYMELSSLRSEDTAVYYCARASFLYYSYYFDYWGQGTLVTVSS
VL: not shown
notes: human IgG1 Fab
In the case of B11, the Kd worked out at 465 nM in experiment [1] and 117 nM in experiment [2].

B12: Anti-CD38-UCP03-C2 Fab (Fab, V domains shown)
VH: QVQLVQSGAEVKKPGSSVKVSCKASGGTFSNYAISWVRQAPGQGLEWMGGIIPAFGDAGYAQKFQGRVTITADESTSTAYMELSSLRSEDTAVYYCARGRVLYYSYYFDYWGQGTLVTVSS
VL: not shown
notes: human IgG1 Fab
B12: the Kd is 628 nM in experiment [1] and 1390 nM in experiment [2].

B13: Anti-CD38-UCP02-C3 Fab (Fab, V domains shown)
VH: QVQLVQSGAEVKKPGSSVKVSCKASGDYFNNYAINWVRQAPGQGLEWMGRIIPFLDDANYAQKFQGRVTITADESTSTAYMELSSLRSEDTAVYYCARATSPLYSYYFDYWGQGTLVTVSS
VL: not shown
notes: human IgG1 Fab
As for B13, the figures for the equilibrium dissociation constant (Kd) in experiment [1] and in experiment [2] were 188 nM and 305 nM, respectively.

B14: Anti-CD38-UCP02-A7 Fab (Fab, V domains shown)
VH: EVQLLESGGGLVQPGGSLRLSCAASGFTFSFYDMSWVRQAPGKGLEWVSTITLHGGDTYYADSVKGRFTISRDNSKNTLYLQMNSLRAEDTAVYYCARDPSYIYSTSGYFDYWGQGTLVTVSS
VL: not shown
notes: human IgG1 Fab
Regarding B14, the dissociation constant Kd in experiment [2] was found to be 71.1 nM.

B15: Anti-CD38-UCP01-G1 Fab (Fab, V domains shown)
VH: QVQLVQSGAEVKKPGSSVKVSCKASGGGFSKYFITWVRQAPGQGLEWMGGVIPKIGYTSYAQKFQGRVTITADESTSTAYMELSSLRSEDTAVYYCARGSDDYASYSPLDSWGQGTLVTVSS
VL: not shown
notes: human IgG1 Fab
As for B15, the results for the dissociation constant (Kd) in experiment [1] and in experiment [2] were 283 nM and 1120 nM, respectively.

B16: Anti-CD38-UCP03-B3 Fab (Fab, V domains shown)
VH: QVQLVQSGAEVKKPGSSVKVSCKASGGDFTLYSISWVRQAPGQGLEWMGRIIPTGANANYAQKFQGRVTITADESTSTAYMELSSLRSEDTAVYYCARSWPSLGSGWFDIWGQGTLVTVSS
VL: not shown
notes: human IgG1 Fab
B16: the figures for the dissociation constant (Kd) in experiment [1] and in experiment [2] were 170 nM and 115 nM, respectively.

B17: Anti-CD38-UCP02-F2 Fab (Fab, V domains shown)
VH: QVQLVQSGAEVKKPGSSVKVSCKASGDVFSLLAIGWVRQAPGQGLEWMGRIIPSLDATHYAQKFQGRVTITADESTSTAYMELSSLRSEDTAVYYCARGRDVLRSYYFDIWGQGTLVTVSS
VL: not shown
notes: human IgG1 Fab
On to B17, for which the Kd in experiment [1] turned out to be 14 nM; in experiment [2], 14.2 nM.

B18: Anti-CD38-UCP02-F5 Fab (Fab, V domains shown)
VH: QVQLVQSGAEVKKPGSSVKVSCKASGGVFSYYTISWVRQAPGQGLEWMGRIIPSLGATHYAQKFQGRVTITADESTSTAYMELSSLRSEDTAVYYCARSDSFYYAYYMDLWGQGTLVTVSS
VL: not shown
notes: human IgG1 Fab
On to B18, for which the results for the Kd in experiment [1] and in experiment [2] were 55.2 nM and 71.1 nM, respectively.

B19: Anti-CD38-UCP02-B7 Fab (Fab, V domains shown)
VH: EVQLVESGGGLVKPGGSLRLSCAASGFSFNEAWMTWVRQAPGKGLEWVGRIKSYSDGGYTGYAAPVKGRFTISRDDSKNTLYLQMNSLKTEDTAVYYCARSPGIPYHYFDVWGQGTLVTVSS
VL: not shown
notes: human IgG1 Fab
With B19, in experiment [2], the Kd was determined as 1710 nM.

B20: Anti-CD38-UCP02-B1 Fab (Fab, V domains shown)
VH: QVQLVQSGAEVKKPGSSVKVSCKASGGQFSFYAINWVRQAPGQGLEWMGEIIPDYGVTHYAQKFQGRVTITADESTSTAYMELSSLRSEDTAVYYCARWSYTYGIRYYYKLFDPWGQGTLVTVSS
VL: not shown
notes: human IgG1 Fab
Regarding B20, the Kd in experiment [2] is 595 nM.

B21: Anti-CD38-UCP02-F6 Fab (Fab, V domains shown)
VH: EVQLLESGGGLVQPGGSLRLSCAASGFTFSFYDMSWVRQAPGKGLEWVSAVSLYGDETYYADSVKGRFTISRDNSKNTLYLQMNSLRAEDTAVYYCAREPVSYDYYGSYFDYWGQGTLVTVSS
VL: not shown
notes: human IgG1 Fab
In the case of B21, the Kd in experiment [2] was 389 nM.

B22: Anti-CD38-UCP01-H1 Fab (Fab, V domains shown)
VH: QVQLVQSGAEVKKPGSSVKVSCKASGDFFSGYAINWVRQAPGQGLEWMGRIIPLLGDTYYAQKFQGRVTITADESTSTAYMELSSLRSEDTAVYYCARSAAGWFAYWGQGTLVTVSS
VL: not shown
notes: human IgG1 Fab
With B22, the Kd was 352 nM in experiment [1] and 437 nM in experiment [2].
